Test results: paper PMC10383195, “Interactions of the Kv1.1 Channel with Peptide Pore Blockers: A Fluorescent Analysis on Mammalian Cells” (Membranes, 2023)
Bridge positions count the residues as written; N and C are the ends. Peptide text beside a SMILES is read from it.

How the values were obtained:
[1] = biological target: T1, mKate2-tagged human Kv1.1 (S369T) channel (K-Kv1.1) (Homo sapiens, UniProt Q09470, S369T); assay: Competitive binding of peptide pore blocker and A-HgTx to K-Kv1.1 on the plasma membrane of Neuro2a cells (confocal microscopy); details: for Kd: complete medium (closed channels), Neuro2a cells, A-HgTx 2 nM, 60 min, Cheng-Prusoff from DC50, mean ± SEM, two independent experiments, SEM, read-out: Kap (apparent dissociation constant of complex with K-Kv1.1)
T1 construct: these fragments were combined and amplified using terminal primers to obtain the whole mutated gene; expressed in transfected cells; host or cells: mouse neuroblastoma Neuro2a cells, transient transfection with pmKate2-KCNA1m1
Experimental: To analyze the binding of A-HgTx, A-HgTx (0.25–4 nM) was added to cells in a complete medium for 60 min. To analyze competitive binding, A-HgTx (2 nM), together with the selected peptide (0.05–160 nM), was added to cells in a complete medium for 60 min.
To compare ligand binding with closed and open channels, ligands were added to cells (60 min, 37 °C) in a buffer (20 mM HEPES pH 7.4, 0.9 mM CaCl2, 0.5 mM MgCl2, 0.1% BSA) supplemented with 4 mM KCl and 150 mM NaCl (Na^+ buffer) or with 150 mM KCl (K^+ buffer).
The fluorescence of the K-Kv1.1 and K-Kv1.1wt channels was excited at 561 nm and detected in the 650–700 nm region. A-HgTx fluorescence was excited at 488 nm and detected in the 495–535 nm region. Sequential scanning was used to measure the cellular distributions of A-HgTx and mKate2 fluorescence in order to avoid interference of mKate2 fluorescence with cellular autofluorescence excited at 488 nm.
Quantitative analysis of the interaction of A-HgTx with K-Kv1.1 was carried out in accordance with the procedure developed previously for A-HgTx and the fluorescently labeled Kv1.3 channel. Briefly, the regions of interest with K-Kv1.1 on the plasma membrane were selected in the confocal images and used to create binary (0;1) masks that described the membranous distribution of K-Kv1.1. The confocal images of K-Kv1.1 and A-HgTx were multiplied by the corresponding mask, and the average fluorescence intensities of A-HgTx (Ili) and K-Kv1.1 (Ici) corrected for the background signal were calculated for each i-cell. Ratio Ri = Ili/Ici was calculated and averaged over 15–20 cells to obtain the Rav value and the standard deviation.
To analyze the competitive binding of the studied peptide pore blocker and A-HgTx to K-Kv1.1 on the cellular membrane, Rav data were plotted depending on the blocker concentration (C) at the constant A-HgTx concentration (L) and fitted with the following equation:Rav(C) = Rav0/(1 + C/DC50)(3) where DC50 is the blocker concentration displacing 50% of A-HgTx from the complex with K-Kv1.1, and Rav0 is Rav at C = 0.
The apparent dissociation constant (Kap) of the complex between the studied blocker and the K-Kv1.1 channel was calculated using the Cheng–Prusoff equation:Kap = DC50/(1 + L/Kd).(4)
Two independent experiments were performed, and the Kav data were averaged and presented as mean ± SEM. Fifteen to twenty-five treated cell images were the average value for each point on the curves of A-HgTx binding to the K-Kv1.1 channel.

[2] = biological target: T2, K-Kv1.1 channel (hKv1.1S369T with mKate2) (Homo sapiens, UniProt Q09470, S369T); assay: Whole-cell patch-clamp of currents through K-Kv1.1 in Neuro2a cells; assay type: cell-based; details: HgTx1 2 nM, applied voltage from −10 to 70 mV, n = 10
T2 construct: these fragments were combined and amplified using terminal primers to obtain the whole mutated gene; expressed in transfected cells; host or cells: mouse neuroblastoma Neuro2a cells, transient transfection with pmKate2-KCNA1m1
Experimental: Membrane ion currents through the K-Kv1.1 channel were recorded at room temperature by the patch-clamp technique using the standard whole-cell configuration as described earlier.
Briefly, Neuro2a cells attached to coverslips (10 mm in diameter) pre-coated with poly-D-lysine were immersed in a buffer (140 mM NaCl, 2.8 mM KCl, 2 mM MgCl2, 2 mM CaCl2, 10 mM glucose, 10 mM HEPES, pH 7.4) and perfused continuously. Micropipettes with a tip resistance of 6–8 MΩ were filled with a pipette solution containing 140 mM KCl, 6 mM CaCl2, 2 mM MgCl2, 2 mM MgATP, 0.4 mM NaGTP, 10 mM HEPES, 20 mM BAPTA/KOH (pH 7.3). The patches were routinely held at a holding potential of −40 mV. The potential was changed from −70 to +70 mV (20 mV step) using 200 ms pulses, which were applied incrementally with an interval of 20 s. Finally, the potential returned to the holding potential.
Cells were measured 24–48 h after transfection. The cells were selected by K-Kv1.1 fluorescence. The cells were analyzed if their input resistance was more than 350 MΩ. The currents were recorded using an EPC-10 amplifier (HEKA Elektronik, Stuttgart, Germany).
[…] The toxins were dissolved in a complete medium.
The measured concentration dependence of current inhibition through the K-Kv1.1 channel by A-HgTx was analyzed with the following equation:Irel(L) = 100/(1 + (IC50/L)^h) (1) where Irel is a decrease in current (%), L is the concentration of A-HgTx, IC50 is the concentration of A-HgTx that induces a 50% decrease in current, and h is the Hill coefficient.

Kv1.3 (Homo sapiens) = Kv1.3 (Homo sapiens) (UniProt P22001); details: cited from earlier work
Sequence of Kv1.3 (Homo sapiens) (P22001 whole entry): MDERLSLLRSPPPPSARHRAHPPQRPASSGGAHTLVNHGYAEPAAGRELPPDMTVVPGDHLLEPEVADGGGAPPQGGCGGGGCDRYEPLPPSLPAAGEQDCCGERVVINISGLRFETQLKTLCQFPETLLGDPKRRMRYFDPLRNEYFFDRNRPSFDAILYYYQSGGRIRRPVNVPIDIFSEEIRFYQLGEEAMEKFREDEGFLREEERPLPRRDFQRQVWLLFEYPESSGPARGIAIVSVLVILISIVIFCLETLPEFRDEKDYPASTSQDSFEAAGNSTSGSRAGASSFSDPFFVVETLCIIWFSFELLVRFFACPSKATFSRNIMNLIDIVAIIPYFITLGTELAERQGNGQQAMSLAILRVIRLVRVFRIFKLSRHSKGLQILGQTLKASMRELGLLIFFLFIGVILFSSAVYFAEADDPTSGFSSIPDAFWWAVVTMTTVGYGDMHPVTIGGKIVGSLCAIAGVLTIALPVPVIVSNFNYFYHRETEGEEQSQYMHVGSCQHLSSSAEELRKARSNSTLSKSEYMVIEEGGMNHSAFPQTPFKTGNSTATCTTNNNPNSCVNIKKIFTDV

[3] = tested on: non-transfected Neuro2a cells; details: cited from earlier work
[4] = biological target: T3, Kv1.1 (K-Kv1.1, mKate2-tagged) (Homo sapiens, UniProt Q09470); assay: competitive confocal fluorescence binding with A-HgTx, complete medium
T3 chain: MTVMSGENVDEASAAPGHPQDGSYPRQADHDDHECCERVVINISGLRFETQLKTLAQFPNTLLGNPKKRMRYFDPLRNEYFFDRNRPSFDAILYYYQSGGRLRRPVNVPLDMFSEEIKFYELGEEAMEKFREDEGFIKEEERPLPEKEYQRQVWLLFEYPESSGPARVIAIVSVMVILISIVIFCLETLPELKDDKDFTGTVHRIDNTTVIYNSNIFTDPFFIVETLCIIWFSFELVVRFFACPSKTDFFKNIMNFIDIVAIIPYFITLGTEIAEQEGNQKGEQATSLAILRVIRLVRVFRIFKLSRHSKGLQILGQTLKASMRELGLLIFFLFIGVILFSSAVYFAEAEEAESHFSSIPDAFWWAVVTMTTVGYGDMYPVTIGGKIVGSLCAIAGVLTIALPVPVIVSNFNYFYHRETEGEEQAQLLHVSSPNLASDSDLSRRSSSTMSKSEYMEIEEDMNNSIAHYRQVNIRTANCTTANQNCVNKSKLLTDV

[5] = biological target: T3, Kv1.1 (K-Kv1.1, mKate2-tagged); assay: competitive confocal fluorescence binding with A-HgTx, K+ buffer (open state)
[6] = biological target: T3, Kv1.1 (K-Kv1.1, mKate2-tagged); assay: confocal fluorescence binding on Neuro2a cells, complete medium
[7] = biological target: T3, Kv1.1 (K-Kv1.1, mKate2-tagged); assay: confocal fluorescence binding on Neuro2a cells, K+ buffer (open state)
[8] = biological target: T3, Kv1.1 (K-Kv1.1, mKate2-tagged); assay: confocal fluorescence binding on Neuro2a cells, Na+ buffer (closed state)

**Q.** With `CC[C@H](C)[C@@H]1NC(=O)[C@@H]2CSSC[C@@H]3NC(=O)[C@H](CCCCN)NC(=O)[C@H](CCCNC(=N)N)NC(=O)[C@H](CC(N)=O)NC(=O)[C@H](CCSC)NC(=O)[C@H](CSSC[C@H](NC(=O)[C@H](CO)NC(=O)[C@@H](NC(=O)[C@H](CC(N)=O)NC(=O)[C@@H](NC(=O)[C@@H]4CCCN4C(=O)[C@@H](NC(=O)CN)C(C)C)[C@@H](C)CC)C(C)C)C(=O)N[C@@H]([C@@H](C)O)C(=O)NCC(=O)N[C@@H](CO)C(=O)N4CCC[C@H]4C(=O)N[C@@H](CCC(N)=O)C(=O)N2)NC(=O)[C@H](CCCCN)NC(=O)CNC(=O)[C@H](Cc2ccccc2)NC(=O)[C@H](CCCNC(=N)N)NC(=O)[C@H](CCSC)NC(=O)CNC(=O)[C@H](C)NC(=O)[C@H](CC(=O)O)NC(=O)[C@H](CCCCN)NC(=O)[C@H](CSSC[C@@H](C(=O)N[C@H](C(=O)N2CCC[C@H]2C(=O)N[C@@H](CCCCN)C(=O)O)[C@@H](C)O)NC(=O)[C@H](Cc2c[nH]cn2)NC3=O)NC(=O)[C@@H]2CCCN2C(=O)[C@H](CCCCN)NC1=O` [AgTx2, agitoxin 2] as the molecule, how does the Kd [1] read?
**A.** 1.5 ± 0.7 nM

**Q.** For `CC[C@H](C)[C@@H]1NC(=O)CNC(=O)[C@H](Cc2ccccc2)NC(=O)[C@H](CCC(N)=O)NC(=O)[C@H](C)NC(=O)[C@H](CCCCN)NC(=O)[C@@H]2CSSC[C@@H](C(=O)N[C@@H](Cc3ccc(O)cc3)C(=O)N3CCC[C@H]3C(=O)N[C@@H](Cc3c[nH]cn3)C(=O)O)NC(=O)[C@H](CCCCN)NC(=O)[C@@H]3CSSC[C@H](NC(=O)[C@H](CCC(N)=O)NC(=O)[C@H](CCCCN)NC(=O)[C@@H]4CCCN4C(=O)[C@H](CO)NC(=O)[C@H]([C@@H](C)O)NC(=O)[C@@H](NC(=O)[C@H](CCCCN)NC(=O)[C@@H](NC(=O)[C@H](CC(=O)O)NC(=O)[C@@H](NC(=O)[C@@H](NC(=O)[C@@H](N)[C@@H](C)O)C(C)C)[C@@H](C)CC)C(C)C)CSSC[C@H](NC(=O)[C@H](CCCCN)NC(=O)[C@H](C)NC(=O)CNC(=O)[C@H](C)NC(=O)[C@H](CCCNC(=N)N)NC1=O)C(=O)N[C@@H](CCSC)C(=O)N[C@@H](CC(N)=O)C(=O)NCC(=O)N[C@@H](CCCCN)C(=O)N3)C(=O)N[C@@H](CC(C)C)C(=O)N1CCC[C@H]1C(=O)N1CCC[C@H]1C(=O)N2` [HgTx1, hongotoxin 1] (H-TVIDVKCTSPKQCLPPCKAQFGIRAGAKCMNGKCKCYPH-OH; disulfide 7-29, 13-34, 17-36), which “decrease in the peak current amplitude” value [2] is on record?
**A.** 73 ± 8%

**Q.** Which Kd [1] does the source give for `CC[C@H](C)[C@H](NC(=O)[C@H](CCC(=O)O)NC(=O)[C@@H](NC(=O)CN)C(C)C)C(=O)N[C@@H](CC(N)=O)C(=O)N[C@H](C(=O)N[C@@H](CCCCN)C(=O)N[C@H]1CSSC[C@@H]2NC(=O)[C@H](CCCCN)NC(=O)CNC(=O)[C@H](Cc3ccccc3)NC(=O)[C@H](CCCNC(=N)N)NC(=O)[C@H](CCSC)NC(=O)CNC(=O)[C@H](C)NC(=O)[C@H](CC(=O)O)NC(=O)[C@H](CCCCN)NC(=O)[C@@H]3CSSC[C@@H](C(=O)N[C@H](C(=O)N4CCC[C@H]4C(=O)N[C@@H](CCCCN)C(=O)O)[C@@H](C)O)NC(=O)[C@H](Cc4c[nH]cn4)NC(=O)[C@H](CSSC[C@H](NC(=O)[C@H](CCC(N)=O)NC(=O)[C@@H]4CCCN4C(=O)[C@H](CO)NC(=O)CNC(=O)[C@H](CO)NC1=O)C(=O)N[C@@H](CC(C)C)C(=O)N[C@@H](CCCCN)C(=O)N1CCC[C@H]1C(=O)N3)NC(=O)[C@H](CCCCN)NC(=O)[C@H](CCCNC(=N)N)NC(=O)[C@H](CC(N)=O)NC(=O)[C@H](CCSC)NC2=O)C(C)C` [KTx1, kaliotoxin 1] here?
**A.** 0.12 ± 0.08 nM

**Q.** With “A-HgTx (Atto-labelled hongotoxin 1) (from UniProt P59847)” as the molecule, how does the Kd (Kv1.3 (Homo sapiens)) read?
**A.** 0.3 nM

**Q.** With charybdotoxin [ChTx] as the molecule, how does the “effect of channel state (closed or open) on affinity of K-Kv1.1 for the peptide” value ([1]; A-HgTx (2 nM) displacement compared in complete medium, Na+ and K+ buffers) read?
**A.** does not affect the affinity

**Q.** What about the “effect on binding of A-HgTx (2 nM) to K-Kv1.1” value ([1]; ChTx 100 nM) of the same molecule?
**A.** does not affect the binding of A-HgTx to K-Kv1.1

**Q.** What about the “sensitivity of background currents to the blocker” value [3] of the same molecule?
**A.** insensitive

**Q.** Which results are given for TVINVKCTSPKQCLKPCKDLYGPHAGAKCMNGKCKCYNN [Ce1]?
**A.** Kd [4]: 11 nM; Kd [5]: 18 nM

**Q.** With TVIDVKCTSPKQCLPPCKAQFGIRAGAKCMNGKCKCYPH [hongotoxin 1 (HgTx1)] as the molecule, how does the Kd [4] read?
**A.** 0.03 nM

**Q.** What about the Kd [5] of the same molecule?
**A.** 0.05 nM

**Q.** For TIINVKCTSPKQCLPPCKAQFGQSAGAKCMNGKCKCYPH [margatoxin (MgTx)], which Kd [4] is on record?
**A.** 0.3 nM

**Q.** What about the Kd [5] of the same molecule?
**A.** 0.5 nM

**Q.** With TVIDVKCTSPKQCLPPCKAQFGIRAGAKCMNGKCKCYPH [Atto 488-hongotoxin 1 (A-HgTx)] as the molecule, how does the Kd [6] read?
**A.** 0.7 nM

**Q.** And the Kd [7]?
**A.** 0.8 nM

**Q.** And the Kd [8]?
**A.** 0.9 nM
